Measurements published in IntAct's records for PubMed 11781565.

B1: Cell division cycle-related protein res1/sct1 (Schizosaccharomyces pombe (strain ATCC 38366 / 972)), P33520 (parent)
chain: MYNDQIHKITYSGVEVFEYTINGFPLMKRCHDNWLNATQILKIAELDKPRRTRILEKFAQKGLHEKIQGGCGKYQGTWVPSERAVELAHEYNVFDLIQPLIEYSGSAFMPMSTFTPQSNRKPTEAYRRNSPVKKSFSRPSHSLLYPYTSSNNMTSTSRMSGIHDALSLQSDFTRSPDMPSDSFTGSLHDIKASPFSSNNYAQSLLDYFLLPNTTQPPDFVYDRPSDWDVNAGIDEDGHTALHWAAAMGNLEMMHALLQAGANVVAVNYLQQTSLMRCVMFTMNYDLQTFEVVSELLQSAICMNDSFGQTVFHHIALLASSKSKMEAARYYMDILLQNLTATQSVDVAAQIINLQDDHGDTALLICARNGAKKCARLLLSFYASSSIPNNQGQYPTDFLSSKDMSFPENDDSPLNSKIEDNLIDNLKYPQSLDDHLSSKKPISYFSNKLTHQTLPNVFTQLSELSKCHEASLAEKQLTYNLAMEALEQTVRETETCQRLWNERTNNDENYLVNQREDLIHQCKKFLHTLKTARYYLETVQLHQLKKYVTYFSQIWSTDELADISETKNLVGHDTKTNRSSLSSKHEVDLFTAENEAAREKLVEQLCSLQAQRKQKINEILNLLSMGMYNTINTDQSGS
partner: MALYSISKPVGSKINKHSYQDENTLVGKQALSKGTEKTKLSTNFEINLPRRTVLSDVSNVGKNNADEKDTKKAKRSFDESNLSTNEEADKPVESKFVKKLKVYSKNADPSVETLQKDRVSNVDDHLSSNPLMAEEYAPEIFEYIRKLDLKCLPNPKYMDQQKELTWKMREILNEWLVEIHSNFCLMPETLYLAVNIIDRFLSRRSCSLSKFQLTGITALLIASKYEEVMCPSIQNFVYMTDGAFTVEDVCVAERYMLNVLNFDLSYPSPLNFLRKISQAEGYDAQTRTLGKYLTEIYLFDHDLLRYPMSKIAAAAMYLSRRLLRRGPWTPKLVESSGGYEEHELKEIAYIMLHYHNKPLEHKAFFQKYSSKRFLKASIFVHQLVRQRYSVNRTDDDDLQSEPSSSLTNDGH

Variants of: B1
Conditions: with cg22_schpo cig2, P36630

effect of a mutation on the interaction	Variant
increasing interaction	S130A

Variants of: B1
Conditions: with cg22_schpo cig2, P36630
Remark: another data set of the same source

effect of a mutation on the interaction	Variant
disrupting interaction	S130A
